Results from paper PMC12650828, “Dual-Mode Aptamer AP1-F Achieves Molecular–Morphological Precision in Cancer Diagnostics via Membrane NCL Targeting”.

Biological target: nucleolin (NCL) (Homo sapiens, UniProt P19338 1-710)
Assay: MST; MST: 300 nM FAM-aptamer, NCL 1.95 nM-4 uM, binding buffer not specified, 25 C, 15 min; AP1-AP6 and Mut folded in 100 mM KCl, 10 mM K3PO4 pH 7.0; AS1411 in 100 mM NaCl, 10 mM Tris-HCl pH 7.0; cell competition at 4 C, 1 h
Settings: protein: commercial, label: 5'-FAM (amide bond linker)

Chain of nucleolin (NCL) (P19338 whole entry): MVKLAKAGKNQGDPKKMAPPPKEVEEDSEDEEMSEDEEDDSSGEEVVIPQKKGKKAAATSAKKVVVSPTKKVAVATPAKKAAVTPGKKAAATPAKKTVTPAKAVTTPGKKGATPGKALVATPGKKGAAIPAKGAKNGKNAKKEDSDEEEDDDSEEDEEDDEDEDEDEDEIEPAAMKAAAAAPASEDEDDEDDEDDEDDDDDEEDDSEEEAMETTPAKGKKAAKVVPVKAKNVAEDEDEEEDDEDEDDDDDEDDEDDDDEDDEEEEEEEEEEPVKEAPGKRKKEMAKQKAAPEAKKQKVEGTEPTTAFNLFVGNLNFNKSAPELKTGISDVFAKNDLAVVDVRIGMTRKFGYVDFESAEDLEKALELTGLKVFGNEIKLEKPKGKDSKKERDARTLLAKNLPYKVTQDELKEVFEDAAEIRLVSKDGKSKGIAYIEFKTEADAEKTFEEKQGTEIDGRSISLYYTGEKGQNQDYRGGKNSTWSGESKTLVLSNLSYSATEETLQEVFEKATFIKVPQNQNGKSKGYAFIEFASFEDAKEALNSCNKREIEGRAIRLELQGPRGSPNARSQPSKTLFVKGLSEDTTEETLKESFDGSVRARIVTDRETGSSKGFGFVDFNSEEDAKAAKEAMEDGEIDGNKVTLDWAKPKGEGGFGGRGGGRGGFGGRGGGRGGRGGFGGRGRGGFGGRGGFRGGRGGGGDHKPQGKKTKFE

| Binder | Kd (G4, loop-length variant) [nM] | Kd (G4) [nM] |
| --- | --- | --- |
| GUUAGGGUUUAUUGGGAUUG (structured_RNA) [AP4-F] | 822 ± 290 |  |
| GUUAGGGUUUUGGGAUUG (structured_RNA) [AP2-F] | 621 ± 269 |  |
| GUUAGGGUUUAUUUGGGAUUG (structured_RNA) [AP5-F] | 926 ± 140 |  |
| GUUAGGGUUUAUGGGAUUG (structured_RNA) [AP3-F] | 499 ± 95.5 |  |
| GUUAGGGUUUGGGAUUG (structured_RNA) [AP1-F] |  | 474 ± 47.7 |
| GUUAGGGUUUAUUAUGGGAUUG (structured_RNA) [AP6-F] | 507 ± 132 |  |
